Experimental findings from the supplement of paper PMC12042874 are described below.

± gives the uncertainty stated by the source.

The data set can be described thus: amyloid nucleation score (Sup35N fusion, yeast selection) (log enrichment); library NNK1; higher = more nucleation; inactive = no reads after selection. The method, boiled down: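 On medium lacking adenine and uracil, psi-negative yeast expressing peptides of 20 random codons fused to Sup35N were grown 7 days at 30°C after a 24-hour induction with 100 μM copper sulfate. Illumina sequencing of input and output plasmid inserts gave the reads, and sequences under 100 input reads were excluded. The nucleation score is the DiMSum log enrichment of output over input reads, centred on the mode score of non-aggregating sequences.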
For QWNEDLSLWPDLKYGHMLLS, the amyloid nucleation score came to 0.052 ± 0.52.

IKCPRLK displayed an amyloid nucleation score of -0.466 ± 0.66. TMDDYPLDLHCWAGS: the amyloid nucleation score worked out at 0.767 ± 1. KLLDSSVVDSLRQHCEAGLR showed an amyloid nucleation score of 0.075 ± 0.3.

HHVWGFRSMLDSLHRSDCIQ had an amyloid nucleation score of -0.989 ± 2.7. LIVIPKGG yielded an amyloid nucleation score of 1.58 ± 0.51. The figure for VSTSHCTSFVFNIYCKYDSR is 8.542 ± 0.052; for RYVNRT it is -0.497 ± 1.2; for CLFNEALINANHLNNINWML it is -0.361 ± 0.66.

Substance TGVCTGECWYRGLVQSCSGA showed an amyloid nucleation score of -0.239 ± 0.53. With IIIRCKSVVA, the amyloid nucleation score was -0.656 ± 1.9. WGYNRLNDDELLIMSKFLRQ registered an amyloid nucleation score of 1 ± 0.48.

VWFIVLSRGQFHICFYGQG had an amyloid nucleation score of -1.32 ± 2.7. YDTFSPRSWS came in with an amyloid nucleation score of 2.02 ± 0.62. For the substance SGAPRSCFNHSVFRMRASCL, the amyloid nucleation score stood at 0.114 ± 1.4. Turning to TSMVNI, the amyloid nucleation score stood at 0.084 ± 0.88. WKKPIQGSVW showed an amyloid nucleation score of 0.295 ± 0.49. The substance FIIPDRVRFLKGMTSFVNSS came in with an amyloid nucleation score of -0.349 ± 1. MRYMCVRY yielded an amyloid nucleation score of 0.676 ± 0.46.

In the case of FVNIADDRRVYLILSVHGDL, the amyloid nucleation score stood at 6.575 ± 0.05. Substance ICEVSLCYR yielded an amyloid nucleation score of 0.2 ± 1. Regarding YLTGVYNWGMCKTCFPRDWG, the amyloid nucleation score amounted to 2.65 ± 0.096.

Turning to FGRGHGLTGR, the amyloid nucleation score came out at 0.25 ± 0.63. Substance FRKFSCCVGSLVSSSYVLDS displayed an amyloid nucleation score of 6.16 ± 0.064. VYVSFTRNCVGCIGLD returned an amyloid nucleation score of 4.62 ± 0.061.

Substance FQGVGDIGSVLHAMFLCYGS yielded an amyloid nucleation score of 2.94 ± 0.15. For QTRWACTTQCGCKCFFE, the amyloid nucleation score is 1.53 ± 0.15. Turning to SVGMVLFLGCGLLLFRFLCG, the amyloid nucleation score was -0.359 ± 1.2. As for IWLSFKDLCKVRICSS, the amyloid nucleation score stood at 0.803 ± 0.59.

MEFISFTWLKYSYMYSDVFS: the amyloid nucleation score result is “inactive”.

As to STFFSY, the amyloid nucleation score result was “inactive”.

The substance YSRGCTFYAKGELRDNGSYY registered an amyloid nucleation score of -0.168 ± 0.48.

As to CKQRKCLGRIYVCEHISQSL, the amyloid nucleation score was determined as 0.461 ± 0.67.

The substance ILCCLMSFWDVRKFFFNQKA showed an amyloid nucleation score of -0.722 ± 0.41. Then CSSKGCLVSESFLHLMTNLC, with 0.969 ± 0.42.

With YTVSTRWRGVNIPYVKHAAL, the amyloid nucleation score was determined as 0.499 ± 0.25. The substance RVILARHHPDDCMGLR showed an amyloid nucleation score of -0.26 ± 0.39.

Take LGRHLMILTYQYEEDFPKYR: the amyloid nucleation score turned out to be 0.938 ± 0.16. RSVYSDLSQTYRLQDFFETM showed an amyloid nucleation score of -1.69 ± 2.4.

In turn, GLCNGCIFWRVKRIKGLKWF returned an amyloid nucleation score of -0.381 ± 0.22. As to ARWCEGRYSFILNKQQKLAK, the amyloid nucleation score is 0.662 ± 0.49.

With INTSR, the amyloid nucleation score stood at 0.038 ± 0.23. Turning to SYGSKFWEFLHFGESV, the amyloid nucleation score was -0.179 ± 0.66. For the substance LCRFSAEDHCYADCTVDHCC, the amyloid nucleation score was -0.244 ± 0.66.

SYIGDCEIFIKEPVGANNLE showed an amyloid nucleation score of -0.909 ± 2.7. NAFSDRLTGCRLRGGMGRTS returned an amyloid nucleation score of -0.526 ± 0.88. With HNGRVFVMRWLYGVLGECG, the amyloid nucleation score was -1.31 ± 1.1. In turn, MGMGNVYAIQFCPMILWD displayed an amyloid nucleation score of 6.783 ± 0.057. Substance HLWFE had an amyloid nucleation score of -0.146 ± 0.43.

The substance FFGCCSRGARIDHVSRNHLL yielded an amyloid nucleation score of 0.185 ± 0.52.

Regarding WGAHCGWQF, the amyloid nucleation score was -0.749 ± 1.3. In turn, WGSCISFRNRGMCLILDSVC came in with an amyloid nucleation score of 0.037 ± 0.37. In the case of CAQRPAVRSF, the amyloid nucleation score is -0.075 ± 0.98. In turn, FVGIQHRMSYWLCGRHAIVI returned an amyloid nucleation score of 0.965 ± 0.71. Then CCDDIRTQDLALRAQIP, with -0.21 ± 0.32. Turning to TNFFGSPCAMCNFSLDICSK, the amyloid nucleation score came to 8.038 ± 0.057. As for IARAVSSESASVWVKDT, the amyloid nucleation score was -1.62 ± 2.7. As for NFNRRRLCIIMKFDDPPLHG, the amyloid nucleation score is 0.102 ± 0.24. Then FRLARGVVWCPGGISC, with -0.536 ± 0.42; and QFDVVMMWQTE, with -0.189 ± 0.3; and LSLSYHMLSYI, with “inactive”. LGMGLTKLLSNYMSGIIVPL registered an amyloid nucleation score of -0.047 ± 1.7. The figure for YNNSLWPIRLVRSKQCLSWT is 0.215 ± 0.54. For LMAPLCICKNFRPELWFNRI, the amyloid nucleation score is -0.115 ± 0.58. Substance VLTCKE showed an amyloid nucleation score of -1.55 ± 1.2. With YLIVVLCRRCLMGSGYNRIG, the amyloid nucleation score was -0.368 ± 0.97. For TMFHLWNFGCVALVR, the amyloid nucleation score was -0.104 ± 0.34. Substance ARTGPTSASVGGLQPVCPGD came in with an amyloid nucleation score of -0.019 ± 0.55.

As for GSGNSHLLYRSSNRCLVLYR, the amyloid nucleation score is -0.134 ± 0.32. The figure for LMWGIAYCYSVDLC is 5.386 ± 0.051; for STWLLGQRRYPRHKERGRAR it is 0.101 ± 0.35.

On to NKMGFSRCSLQGDVKFF, for which the amyloid nucleation score was -0.482 ± 0.51.

As to ISKSFWTRGECCRK, the amyloid nucleation score was 0.368 ± 0.39. SCTPWAVLFMLKSALGSLRG returned an amyloid nucleation score of 0.708 ± 0.71.

SGSGRCTNLSCVGGFGKWLM: the amyloid nucleation score was 0.714 ± 0.6.

Take GNIDGICERSCNRFANYIQG: the amyloid nucleation score is 1.11 ± 0.49. The substance FVLCFFLACGITRNGMPCMV came in with an amyloid nucleation score of 1.26 ± 0.76. Substance GQTLALSYFTVLFSPMLNEW displayed an amyloid nucleation score of 0.169 ± 1. TDEGLVCHK returned an amyloid nucleation score of 0.522 ± 0.75. As for KRVLNLFGEESFAGMIWIDY, the amyloid nucleation score is -0.125 ± 0.97. For ADKTGGPVTNITFLAWPWWG, the amyloid nucleation score is 3.95 ± 0.13.

The substance SWWVGTCFSGQWTVLGFP had an amyloid nucleation score of 0.961 ± 0.69. Substance YCEYILGFCFEMYAFGNRSP displayed an amyloid nucleation score of 0.573 ± 0.62.

Regarding GKPVDRLS, the amyloid nucleation score turned out to be 0.066 ± 0.28. The figure for PSRVKLKISKLL is -0.647 ± 0.94; for VLTEGYLFTSLIDL it is -0.22 ± 0.43; for LLLGDC it is -1.43 ± 2.4. Then CGWRQKLVMVETVTGFSLWG, with 1.41 ± 0.88; and NCDDIYKYMVIVQGSQLFI, with -0.211 ± 0.32. The figure for AVRGINCCKRQSWKCNLCM is 0.915 ± 0.56; for CRLIVISTTYIIKAQKCLIG it is -0.512 ± 0.33; for GSSDPHVLVN it is 0.341 ± 0.26. On to IIFVEWNSGRAC, for which the amyloid nucleation score was -0.526 ± 0.51. Regarding GLYTLSHHGCNAQGWVRDGS, the amyloid nucleation score came to 0.324 ± 0.45. In the case of EISQNTL, the amyloid nucleation score is -0.672 ± 0.32. In the case of LMLVRLVCLHLDDETHIRQR, the amyloid nucleation score entry was “inactive”.

With KGSSAMPL, the amyloid nucleation score entry is “inactive”. The figure for LFLMKANMELVNLYFRSEVR is -0.556 ± 0.52; for PTLVRECFEALSVSDYPVPG it is -0.674 ± 1.7.

RTRLFHDLLLCAAHIRLRIR: the amyloid nucleation score was 0.133 ± 0.38.

SCGLTCDAEYGRGFPGLCMM yielded an amyloid nucleation score of 0.001 ± 1.1. AQWVLMWYVRHVR showed an amyloid nucleation score of 1.49 ± 0.18. Substance TETLADVLALERLPGCMKFI had an amyloid nucleation score of 0.259 ± 0.68. The figure for VFSKLDTLFTVSMTLRPMWP is 0.566 ± 0.79; for LENYDRGDSTRHIDCRLLFL it is 0.275 ± 0.52.

SIKCGVVHLNRMVRAQSKLC registered an amyloid nucleation score of 0.136 ± 1.5. PFVLYWGKLSYYDAD: the amyloid nucleation score was 0.707 ± 0.55. The substance MFCFKGHQSRDLRTFDYIW registered an amyloid nucleation score of 0.1 ± 0.27.

Take KNKVTFKVG: the amyloid nucleation score amounted to 0.22 ± 0.3. As for QINLSGVSVDEWLSLWYGVL, the amyloid nucleation score came out at 0.468 ± 0.72. For the substance TLKHLNATISHT, the amyloid nucleation score amounted to 1.1 ± 0.71.

The substance SFLNINPRQFSWIYCPLVVY displayed an amyloid nucleation score of 2.94 ± 0.23.

AKVPVKGQRLRTGLPKSTHT had an amyloid nucleation score of -1.88 ± 1.4. On to FAYEAWLMR, for which the amyloid nucleation score is -0.077 ± 0.27.

For EGSIFCMRNCRTIWCSEE, the amyloid nucleation score is -0.359 ± 0.33. Then VCFEVWSGHFSASLTM, with 0.663 ± 0.44; and VYGSPPNMWNVV, with 0.066 ± 0.79; and DAGGYLQEIARTPFTVARQQ, with 0.195 ± 0.35. FFRRS showed an amyloid nucleation score of 0.924 ± 0.26.

QRRHYTWMLIRKRSSLHKAR displayed an amyloid nucleation score of -0.462 ± 0.59. YFKNTGEVRSIRLSGHHGWG registered an amyloid nucleation score of 0.048 ± 0.86.

Take RRLTLYANFMRLEILSLNVN: the amyloid nucleation score worked out at 0.146 ± 0.43. In turn, FSARTTVENAEDRSFDNQLV yielded an amyloid nucleation score of 0.312 ± 0.4. On to RPMTVSKEAAKSDGCQKLNT, for which the amyloid nucleation score was -0.634 ± 0.48. IMSYLKTLSPVIAMRTIERP returned an amyloid nucleation score of 0.821 ± 0.5. The figure for GKWFVKRGRIRSAENCIRLF is -0.785 ± 1.1. Substance DAVPSFTA had an amyloid nucleation score of -0.666 ± 0.69.

Turning to YMQGDYM, the amyloid nucleation score result was “inactive”. Then WKGMMQFDMSHSCVYWWKCA, with 0.71 ± 1.1; and RFYKCVLDVNTHLV, with 0.883 ± 0.6. Consider VHTWYHCLSAEMSVMSILDL, for which the amyloid nucleation score is -0.39 ± 1.7. VTYVMCFAMEMMVGRCRWGG registered an amyloid nucleation score of -0.029 ± 1.4. Substance SRKVKVWPVGLRRLVMFFVN yielded an amyloid nucleation score of 1.43 ± 0.53. The substance AMCLV had an amyloid nucleation score of -0.373 ± 0.88. The substance WFWMYGKGKESQSVVNGGGT showed an amyloid nucleation score of 0.861 ± 0.53. Regarding CRRIHFLVTMVTGSPLCLSG, the amyloid nucleation score is -0.627 ± 0.32.

For NVANVV, the amyloid nucleation score was -0.013 ± 1.2. With LLYVLSTLIMYTSTMYIYQV, the amyloid nucleation score was determined as 0.662 ± 0.51. Take MYFIVCTSWGSVVDRGIH: the amyloid nucleation score result is “inactive”. In turn, HSYYGHPHTCFAMKEEVHVR gave an amyloid nucleation score of 0.035 ± 0.77. The entry for VRWCYILQQ is “inactive”.
